Experiments:
Experiment in all cases: cell-based or functional assay
[1] = target: T1, factor VIIIa A1/A3C1C2 dimer, Glu272Ala (human, UniProt P00451 20-391; P00451 1709-2351)
T1 chain 1: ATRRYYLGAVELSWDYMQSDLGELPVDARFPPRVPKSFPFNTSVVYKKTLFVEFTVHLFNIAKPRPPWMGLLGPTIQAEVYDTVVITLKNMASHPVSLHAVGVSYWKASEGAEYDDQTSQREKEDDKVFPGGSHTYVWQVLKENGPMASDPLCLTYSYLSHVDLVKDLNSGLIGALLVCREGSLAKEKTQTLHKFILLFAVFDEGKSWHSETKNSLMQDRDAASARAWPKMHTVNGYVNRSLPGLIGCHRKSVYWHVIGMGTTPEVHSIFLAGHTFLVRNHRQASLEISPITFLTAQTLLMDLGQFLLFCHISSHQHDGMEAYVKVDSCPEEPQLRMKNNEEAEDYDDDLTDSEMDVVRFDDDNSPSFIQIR
T1 chain 2: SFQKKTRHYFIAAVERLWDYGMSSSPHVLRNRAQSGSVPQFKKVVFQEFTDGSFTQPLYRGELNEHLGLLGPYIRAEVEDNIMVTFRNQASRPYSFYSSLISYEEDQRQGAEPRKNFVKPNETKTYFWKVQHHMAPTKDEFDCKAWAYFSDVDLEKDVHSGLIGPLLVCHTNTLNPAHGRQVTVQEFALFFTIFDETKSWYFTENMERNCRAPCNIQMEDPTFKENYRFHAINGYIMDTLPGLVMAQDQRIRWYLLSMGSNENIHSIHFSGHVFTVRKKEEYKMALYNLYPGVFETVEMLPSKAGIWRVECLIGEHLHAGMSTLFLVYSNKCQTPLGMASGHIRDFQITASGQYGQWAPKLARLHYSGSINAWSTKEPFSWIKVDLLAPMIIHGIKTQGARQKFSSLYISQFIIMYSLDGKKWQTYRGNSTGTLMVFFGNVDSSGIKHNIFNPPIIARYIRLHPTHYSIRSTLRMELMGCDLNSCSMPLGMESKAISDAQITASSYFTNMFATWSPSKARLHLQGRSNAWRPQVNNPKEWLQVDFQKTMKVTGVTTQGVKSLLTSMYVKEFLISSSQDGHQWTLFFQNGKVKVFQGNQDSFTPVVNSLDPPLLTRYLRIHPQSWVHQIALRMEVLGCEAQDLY

[2] = target: T2, factor VIIIa A1/A3C1C2 dimer, Glu1984Val (human, UniProt P00451 20-391; P00451 1709-2351)
T2 sequence 1: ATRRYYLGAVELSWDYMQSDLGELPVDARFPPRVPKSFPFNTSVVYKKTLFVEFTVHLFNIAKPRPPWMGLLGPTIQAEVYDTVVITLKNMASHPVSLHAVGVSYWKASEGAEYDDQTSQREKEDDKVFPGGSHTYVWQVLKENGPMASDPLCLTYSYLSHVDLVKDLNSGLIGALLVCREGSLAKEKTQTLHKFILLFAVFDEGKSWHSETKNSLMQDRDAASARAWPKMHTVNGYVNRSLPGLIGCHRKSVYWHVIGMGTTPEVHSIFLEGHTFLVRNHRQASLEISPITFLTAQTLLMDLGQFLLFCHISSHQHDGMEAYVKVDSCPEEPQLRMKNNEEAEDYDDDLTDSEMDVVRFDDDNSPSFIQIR
T2 sequence 2: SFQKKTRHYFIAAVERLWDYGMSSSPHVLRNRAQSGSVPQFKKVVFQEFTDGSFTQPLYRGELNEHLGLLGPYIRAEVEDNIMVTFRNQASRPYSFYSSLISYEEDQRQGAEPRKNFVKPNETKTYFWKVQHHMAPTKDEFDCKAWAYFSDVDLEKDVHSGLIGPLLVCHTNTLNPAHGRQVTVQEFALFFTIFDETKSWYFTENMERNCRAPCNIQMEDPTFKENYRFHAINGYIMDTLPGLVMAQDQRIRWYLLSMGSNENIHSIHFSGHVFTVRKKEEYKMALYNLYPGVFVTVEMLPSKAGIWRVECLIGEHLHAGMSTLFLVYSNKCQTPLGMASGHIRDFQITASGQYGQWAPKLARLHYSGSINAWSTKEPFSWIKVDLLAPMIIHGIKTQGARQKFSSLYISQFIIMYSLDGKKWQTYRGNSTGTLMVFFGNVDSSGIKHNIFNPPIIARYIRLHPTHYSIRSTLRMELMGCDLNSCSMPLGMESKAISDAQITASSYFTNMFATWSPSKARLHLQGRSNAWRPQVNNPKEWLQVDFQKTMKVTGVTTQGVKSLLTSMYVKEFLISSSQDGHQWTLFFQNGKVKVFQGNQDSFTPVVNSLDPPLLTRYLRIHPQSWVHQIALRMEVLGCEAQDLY

[3] = target: T3, factor VIIIa A1/A3C1C2 dimer, Glu1984Ala (human, UniProt P00451 20-391; P00451 1709-2351)
T3 sequence 1: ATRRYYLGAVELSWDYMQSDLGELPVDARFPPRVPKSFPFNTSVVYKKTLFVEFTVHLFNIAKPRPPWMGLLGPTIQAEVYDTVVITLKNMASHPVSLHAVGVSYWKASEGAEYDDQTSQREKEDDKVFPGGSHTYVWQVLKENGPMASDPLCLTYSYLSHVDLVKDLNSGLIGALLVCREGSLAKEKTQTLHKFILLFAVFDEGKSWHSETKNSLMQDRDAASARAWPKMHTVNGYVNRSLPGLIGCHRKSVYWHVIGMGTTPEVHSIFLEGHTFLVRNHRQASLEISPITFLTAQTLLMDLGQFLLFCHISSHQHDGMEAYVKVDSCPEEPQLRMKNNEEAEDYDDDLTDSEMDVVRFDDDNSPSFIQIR
T3 sequence 2: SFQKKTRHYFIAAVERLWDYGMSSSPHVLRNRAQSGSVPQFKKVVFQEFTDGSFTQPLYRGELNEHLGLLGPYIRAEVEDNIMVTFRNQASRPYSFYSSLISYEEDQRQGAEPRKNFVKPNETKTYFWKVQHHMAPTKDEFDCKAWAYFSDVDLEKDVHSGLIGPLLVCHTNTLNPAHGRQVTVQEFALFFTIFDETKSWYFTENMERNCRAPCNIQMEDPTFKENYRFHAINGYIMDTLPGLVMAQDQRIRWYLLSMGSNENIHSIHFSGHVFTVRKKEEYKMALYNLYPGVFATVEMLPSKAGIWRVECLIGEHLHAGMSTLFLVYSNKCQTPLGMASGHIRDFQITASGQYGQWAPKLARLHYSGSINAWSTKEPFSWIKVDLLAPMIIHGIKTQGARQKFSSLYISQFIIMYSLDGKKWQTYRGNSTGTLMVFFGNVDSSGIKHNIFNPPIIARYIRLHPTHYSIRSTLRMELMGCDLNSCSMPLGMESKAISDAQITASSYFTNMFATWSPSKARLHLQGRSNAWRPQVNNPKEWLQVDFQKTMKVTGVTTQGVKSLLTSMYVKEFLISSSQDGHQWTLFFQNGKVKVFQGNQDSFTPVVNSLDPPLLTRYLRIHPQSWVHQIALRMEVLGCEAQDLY

- Factor VIIIa Decay relative to the WT value, Factor IXa absent [1]: 1.95 relative to WT
- Factor VIIIa Decay relative to the WT value, Factor IXa present [1]: 1.06 relative to WT
- Factor VIIIa Decay, Factor IXa absent [1]: 0.164 min⁻¹
- Factor VIIIa Decay, Factor IXa present [1]: 0.0163 min⁻¹
- Factor VIIIa Decay relative to the WT value, Factor IXa absent [2]: 0.26 relative to WT
- Factor VIIIa Decay relative to the WT value, Factor IXa present [2]: 0.13 relative to WT
- Factor VIIIa Decay, Factor IXa absent [2]: 0.0217 min⁻¹
- Factor VIIIa Decay, Factor IXa present [2]: 0.0019 min⁻¹
- Factor VIIIa Decay relative to the WT value, Factor IXa absent [3]: 0.29 relative to WT
- Factor VIIIa Decay relative to the WT value, Factor IXa present [3]: 0.18 relative to WT
- Factor VIIIa Decay, Factor IXa absent [3]: 0.0241 min⁻¹
- Factor VIIIa Decay, Factor IXa present [3]: 0.0027 min⁻¹
B1: factor VIIIa A2 subunit, wild type (other)
chain: SVAKKHPKTWVHYIAAEEEDWDYAPLVLAPDDRSYKSQYLNNGPQRIGRKYKKVRFMAYTDETFKTREAIQHESGILGPLLYGEVGDTLLIIFKNQASRPYNIYPHGITDVRPLYSRRLPKGVKHLKDFPILPGEIFKYKWTVTVEDGPTKSDPRCLTRYYSSFVNMERDLASGLIGPLLICYKESVDQRGNQIMSDKRNVILFSVFDENRSWYLTENIQRFLPNPAGVQLEDPEFQASNIMHSINGYVFDSLQLSVCLHEVAYWYILSIGAQTDFLSVFFSGYTFKHKMVYEDTLTLFPFSGETVFMSMENPGLWILGCHNSDFRNRGMTALLKVSSCDKNTGDYYEDSYEDISAYLLSKNNAIEPR
